Changes are numbered by the printed parent chain.
B1: Antibody G (AbG) (antibody, V domains shown)
VH: EVQLQESGPGLVKPSQTLSLTCTVSGYSISNDFAWNWIRQLPGKGLEWMGYISYKGNTRYQPSLKSRITISRDTSKNQFFLKLNSVTAADTATYYCVTASRGLPYWGQGTLVTVSS
VL: DIQMTQSPSSMSVSVGDRVTITCHSSQDITYNIGWLQQKPGKSFKGLIYHGANLDDGVPSRFSGSGSGTDYTLTISSLQPEDFATYYCVQYDEFPWTFGGGTKLEIK
notes: Full length IgG1
B2: Antibody O (AbO) (antibody, V domains shown)
VH: B1 VH with S30G, N31K, L41P, K55N, L103F
VL: B1 VL with I33V, A52S, D56H, E93D
notes: Full length IgG1; also called Antibody 0
B3: Antibody P (AbP) (antibody, V domains shown)
VH: B1 VH with N31H, L41P, K55S, R101W, Y105W
VL: B1 VL with T30N, Y31M, I33V, N53I, D92A
notes: Full length IgG1

How the values were obtained:
[1] = target: T1, wild type human EGFR on cells (A431, NHEK, SCC-15, H292) (human, UniProt P00533 25-1210); test: FACS binding to normal human epidermal keratinocytes (NHEK), AlexaFluor 488 secondary antibody
T1 construct: Endogenous receptor of human cell lines and keratinocytes said to express wild type EGFR; also called wild type EGFR; wtEGFR
Experimental: NHEK cells express wild type EGFR.
Cells were harvested when approximately 80% confluent using trypsin, neutralized and washed once in PBS/1% FBS (FACS buffer) then resuspended at 2.5×10⁶ cells/mL in FACS buffer. 100 μL of cells/well were added to a round bottom 96-well plate. 10 μL of a 10x concentration of Ab (final concentrations are listed in the Figures) was added and plate was incubated at 4° C. for one hour. Wells were washed twice with FACS buffer then resuspended in 50 μL of secondary Ab (AlexaFluor 488) diluted in FACS buffer. The plate was incubated at 4° C. for one hour then washed twice with FACS buffer. Cells were then resuspended in 100 μL of PBS/1% formaldehyde and analyzed on a Becton Dickinson LSRII flow cytometer. Data was analyzed using WinList flow cytometry analysis software.

EGFRvIII on U87MG cells = target: T2, EGFRvIII on U87MG cells (human, UniProt P00533 298-1210); test: competition FACS on U87MG de2-7 cells expressing EGFRvIII; competitor Ab1-FITC at 100 nM
T2 construct: also called de2-7 EGFR

[2] = target: T3, truncated wild type EGFR 1-525 (EGFR1 (1-525)-SRGPF-Myc-NMHTG-6His) (human, UniProt P00533 25-525); test: SPR (Biacore), antibody captured via anti-human Fc, antigen injected
T3 construct: the signal peptide is left out; not shown: Myc tag
Experimental: (§1) Biacore analysis was performed using a Biacore T100 with a CM5 sensory chip, and test antibodies were captured via anti-human Fc antibodies that were amino coupled to the chip using a standard amine coupling kit according to manufacturer's instructions (GE healthcare). Briefly, a CM5 chip surface was activated with EDC/NHS. Goat anti-human Fc specific polyclonal antibody (Thermo Fisher Scientific Inc., Rockford, Ill.) was diluted to 25 μg/mL in 10 mM sodium acetate (pH 4.5) and injected over the activated surface to achieve immobilization. Unreacted moieties on the biosensor surface were blocked with ethanolamine. The Biacore T100 is a surface plasmon resonance based biosensor for detecting, characterizing and quantifying bimolecular interactions, including the interactions between an antibody and its antigen. Antigen was injected at 80 μL/minute for 3 minutes and dissociation was followed for 15 minutes.

[3] = target: T4, EGFRvIII extracellular domain (EGFR (1-29)-G-(298-645)-LESRGPF-Myc-NMHTG-6His) (human, UniProt P00533 298-641); test: as above
T4 construct: also called recombinant EGFRvIII; not shown: Myc tag
Experimental: as §1

[4] = target: T3, truncated wild type EGFR 1-525 (EGFR1 …); test: SPR (Biacore T100)
[5] = target: T4, EGFRvIII extracellular domain (EGFR …); test: SPR (Biacore T100)
[6] = target: T3, truncated wild type EGFR 1-525 (EGFR1 …); test: SPR (summary of FIG. 6)
[7] = target: T1, wild type human EGFR on cells (A431, …); test: cell-based or functional assay

Row | Binder | EC50 (read off the curve) [1] [µM] | IC50 (read off the curve) (EGFRvIII on U87MG cells) [µM] | Kd [2] [µM] | koff [2] [s⁻¹] | kon [2] [M⁻¹ s⁻¹] | KD ratio (Ab1/variant Ab) [3] | Kd [3] [µM] | koff [3] [s⁻¹] | kon [3] [M⁻¹ s⁻¹] | fold increase in affinity relative to Ab1 [4] [fold] | fold increase in binding relative to Ab1 [5] [fold] | KD ratio (Ab1/variant Ab) [2] | fold increase in affinity relative to Ab1 [5] [fold] | koff [6] [s⁻¹] | IC50 of inhibition of EGFR signaling in A431 cells (phospho-EGFR ELISA) [7] [µM]
1 | B1 | ~0.04 | ~0.02 | 0.0086 | 5.88e-05 | 6800 | 47.2 | 0.0002 | 7.44e-05 | 374000 | 263 | > 47 |  |  |  | 
2 | B2 |  |  | 0.0039 | 2.05e-05 | 5250 | 35.2 | 0.00027 | 5.22e-05 | 196000 |  |  | 582 | 63 |  | 
3 | B3 | ~0.03 | ~0.03 | 0.021 | 7.67e-05 | 3580 | 8.2 | 0.0012 | 0.000135 | 117000 |  |  | 106 |  | < 0.0001 | > 0.04

Reference: patent publication US20150337042A1 (AbbVie / Abbott, published 2015)
